Laboratory results from paper PMC3328451, “Mycobacterium tuberculosis Rv3586 (DacA) Is a Diadenylate Cyclase That Converts ATP or ADP into c-di-AMP” (PLoS ONE, 2012).

Key:
[1] = molecular target: the molecule itself; assay: cross-linking; 1.5 µM protein in 50 mM sodium phosphate pH 7.4, 20% glycerol, 5 mM MgCl2, with 35 mM glutaraldehyde for 1 h at room temperature; SDS-PAGE and Western blot with the anti-DacA antibody
[2] = molecular target: the molecule itself; assay: SEC
[3] = molecular target: the molecule itself; assay: AUC; sedimentation velocity, 4°C, 10% glycerol in PBS; DacA and DacA_(1–287) at 40 000 rpm, DacA_(140–358) at 50 000 rpm; mass by the c(M) method in SEDFIT

B1: DacA_(140–358) (domain or fragment)
chain: VLTDSATILSRANQAIATLERYKTRLDEVSRQLSRAEIEDFVTLRDVMTVVQRLELVRRIGLVIDYDVVELGTDGRQLRLQLDELLGGNDTARELIVRDYHANPEPPSTGQINATLDELDALSDGDLLDFTALAKVFGYPTTTEAQDSTLSPRGYRAMAGIPRLQFAHADLLVRAFGTLQGLLAASAGDLQSVDGIGAMWARHVREGLSQLAESTISDQ
notes: also called last 219 aa of DacA; DacA lacking the N-terminal Dac domain
- stoichiometry N [1]: 2

B2: Mycobacterium tuberculosis Rv3586 (DacA) (enzyme)
chain: MHAVTRPTLREAVARLAPGTGLRDGLERILRGRTGALIVLGHDENVEAICDGGFSLDVRYAATRLRELCKMDGAVVLSTDGSRIVRANVQLVPDPSIPTDESGTRHRSAERAAIQTGYPVISVSHSMNIVTVYVRGERHVLTDSATILSRANQAIATLERYKTRLDEVSRQLSRAEIEDFVTLRDVMTVVQRLELVRRIGLVIDYDVVELGTDGRQLRLQLDELLGGNDTARELIVRDYHANPEPPSTGQINATLDELDALSDGDLLDFTALAKVFGYPTTTEAQDSTLSPRGYRAMAGIPRLQFAHADLLVRAFGTLQGLLAASAGDLQSVDGIGAMWARHVREGLSQLAESTISDQ
notes: also called native DacA; not shown: His tag, C-terminal, kept
- stoichiometry N [2]: 8

B3: DacA_(1–287) (domain or fragment)
chain: MHAVTRPTLREAVARLAPGTGLRDGLERILRGRTGALIVLGHDENVEAICDGGFSLDVRYAATRLRELCKMDGAVVLSTDGSRIVRANVQLVPDPSIPTDESGTRHRSAERAAIQTGYPVISVSHSMNIVTVYVRGERHVLTDSATILSRANQAIATLERYKTRLDEVSRQLSRAEIEDFVTLRDVMTVVQRLELVRRIGLVIDYDVVELGTDGRQLRLQLDELLGGNDTARELIVRDYHANPEPPSTGQINATLDELDALSDGDLLDFTALAKVFGYPTTTEAQDS
notes: also called first 287 aa of DacA; DacA lacking the C-terminal HhH domain
- stoichiometry N [3]: 4
